For the data set, the target named is MERS-CoV nsp13 helicase (WT) (MERS-CoV, UniProt K9N7C7 5311-5908). Description: EMSA. On the technique in general: Mobility shift assays separate free from complexed probe on a gel.
MERS-CoV nsp13 helicase (WT), sequence (K9N7C7 5311-5908): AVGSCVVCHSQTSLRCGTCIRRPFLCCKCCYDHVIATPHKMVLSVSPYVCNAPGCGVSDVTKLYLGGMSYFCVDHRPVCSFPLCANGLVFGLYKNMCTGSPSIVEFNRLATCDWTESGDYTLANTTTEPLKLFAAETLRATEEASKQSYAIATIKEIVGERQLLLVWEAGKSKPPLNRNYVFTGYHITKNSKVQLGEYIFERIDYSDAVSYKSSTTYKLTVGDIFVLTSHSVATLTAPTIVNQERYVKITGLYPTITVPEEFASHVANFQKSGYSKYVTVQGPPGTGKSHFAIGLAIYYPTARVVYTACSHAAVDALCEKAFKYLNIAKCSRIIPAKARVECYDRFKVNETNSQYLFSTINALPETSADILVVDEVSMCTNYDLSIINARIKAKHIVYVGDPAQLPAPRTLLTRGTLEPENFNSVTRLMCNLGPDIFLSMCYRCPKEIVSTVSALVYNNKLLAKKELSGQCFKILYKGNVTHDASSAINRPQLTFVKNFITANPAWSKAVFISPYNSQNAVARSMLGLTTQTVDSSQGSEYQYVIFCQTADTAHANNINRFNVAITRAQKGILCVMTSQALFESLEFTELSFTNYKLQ

B1: EMSA partial duplex, 18 bp with 5' (dT)21 overhang (dsDNA)
DNA 1: TTTTTTTTTTTTTTTTTTTTTCTGATGTTAGCAGCTTCG
DNA 2: CGAAGCTGCTAACATCAG
As for B1, the binding result is listed as “binds”.

The record behind these values is article PMC11863148.
